In the DeepSol protein solubility set:

Test: soluble on expression in E. coli; label from the status in PepcDB or PDB records

Sequence	soluble on expression in E. coli
MSLNISTGLLIVESPTKAKTIAKMFSRPSVRIRNKVPVYETIIVDGNQIYVLDIVASKGHIVDLTLEDIGYYGIKVEDDGTIKPYYDLIKKCLDCNKIFSSASDKCPYCGSANLQSAQTTINLLRELALSVDKVFIASDPDTEGEKIAYDLASFLSPYNSNVYRVVYHEITKKAILEALRNPKKINTNLVMSQIVRRIEDRWIGFTLSNLLKTKFNGHNHGAGRVQTPVLGWIVNKTIKYKSAMGHVVYIDIAGYSIKKYFSEKRKVEEYINNLQVARIEKISEEKILLSPLPPFTTDTLLIEANMKYKLPANLVMKIAQDLFEAGLITYHRTDSTHISSVGIEIAKEYLQKQALIKEFVPRSWESSEEGAHEAIRPTRAIDVNELIQEIEENPYKYSIRFSKLHLLIYDLIFKRFIASQMSHAVGTKSRYLIKLGKDDNVDVELLSNAEGGFIKVYPVKVYNLPVGEIQPKVNITKGSSEQLLSYSDVISLMKSKGIGRPSTYAKTIENLMKHGYIVSSKRKSYLIATNRGISVYQFLSSKFYDLVSESTTSRLMTKLDDIALSKLNASTVLLEIFSEISTLVNPLKSEEGHHHHHH	soluble
MGHHHHHHSHMFYLAAAVSDFYVPVSEMPEHKIQSSGGPLQITMKMVPKLLSPLVKDWAPKAFIISFKLETDPAIVINRARKALEIYQHQVVVANILESRQSFVFIVTKDSETKLLLSEEEIEKGVEIEEKIVDNLQSRHTAFIGDRN	not soluble
MGSDKIHHHHHHMNTNQLIEAFRKFLPAEAILHEAEDLRPYECDALSAYRQLPMIVVLPRTEAEIAAILQTCQAERIPVVARGSGTGLSGGALPHAEGVLLSLARLNHILEIDPAAGTARVQPGVRNLAISEAAAYYGMYYAPDPSSQIACSIGGNVAENSGGVHCLKYGLTVHNILRLRVLTIEGDLLEIGADALDSPGFDLLALMTGSEGMLGIVTEITVRLLPKPETVKLVMAVFDDVRKAGEAVASVIQAGIIPAGMEMMDKITIHAVEDFVHAGYDLEGAAILLCESDGMAEEVADEIERIRTILQASGATRISLAQDEAERQRFWAGRKAAFPAAGRVSPDYYCMDGTIPRKHLAHVLEQIEQLSAEYGLRCMNVFHAGDGNLHPLILYDANQPGELQKAEAFGARILEICIEAGGSLTGEHGVGIEKLNQMCLQFNDAERNRFHAIKAAFDPQSLLNPGKAIPELHRCAEFGAMHIHRGAEKFPEIPRF	not soluble
MGHHHHHHSHMLSPNPLNSRAVEDISSSRTNPYSYAMSTEEARFLTYHMWPLTFLSPSELARAGFYYIGPGDRVACFACGGKLSNWEPKDDAMSEHRRHFPNCPFLENSLETLRFSISNLSMQTHAARMRTFMYW	not soluble
HPPMPDYTRSLESTLSFWASWVEELPHQRLYDAEVRRSMLVLRALTDLQTGGIVAAPTTSLPEDFGGIRNWDYRYVWLRDSALTIEALVEYGFSQAALQWRTWLLRAIAGDPENLRIMYGLGGERHLPERELQHLRGYENSVPVRVGNGAAEQYQADVVGEVMVALETIRRAGCLEDEFSWGMQKAILDFQEANFDRKDQGIWEMRSEPQYFTHGRAMMWAGFDRGIKAIEEFNLDGPIERWRELRAKLREEIMTNGFNEEIQSFTQCYDNTQVDASLLQLAQIGFIGFDDPKMLSTVARIEQELLDAHGFLHRYHTDGSDGLAGDEYPFLICSFWLVEQYASSNRLDEAKEKMNRILAVQSPLGLLAEEYSTHHGRLAGNYPQAFSHIGLISAARAINFEEARNR	not soluble
MSTNYEAIIIGAGQAGLAAAHELSRRGFTPGKDFLVLDSNDGPGGAWRHRWDSLTLGKAHGIADLPGLPMNRPDPKTPASTLVAGYYGAYENEFSFAVVRPVKVSRVEPTSEDPSSPLRVSSDDGREWITRMVLNATGTWTNPYVPYIPGIDKFQGKQLHTVNYRKAEDFKGKKVLVVGGGLSAVQFLLELEGLAETTWATRRPPNFTQREFDAGWGIAVERAVRERTFNGKAPASVVRTTGIPQIPDYLAGVDRGLIVSRGMFEEITPTGVVFGEPPAERSEGLGPSAGTTLAVPESWKPYPAGTHLDVDVIFWNTGFRAALRHLAPMKLRGQGRGIELIDEVSPASDARVLLVGYGSTASTVGATRAGRVAGRVAAKRLLVDVSPHVNLEHHHHHH	not soluble
MSWQTYVDEHLMCDIDGQGEELAASAIVGHDGSVWAQSSSFPQFKPQEITGIMKDFEEPGHLAPTGLHLGGIKYMVIQGEAGAVIRGKKGSGGITIKKTGQALVFGIYEEPVTPGQCNMVVERLGDYLIDQGL	soluble
MDNILNYPTSTHVDRLVPKTAFYKHLEINTRLKMRFVEDVERIQWLYKLAPSTMNVDTGKTVHEIVMFLVTLKAEDMPDDVFLAIDRQMPRHVVFVLQYANRGRLLLNYKEWVDANKTRFNILKTFRTEWMPLAKVKLELAGSSLDNIYEAFAGQISGFGTTNAADTKQIMALQDELARKRRAAEALQKRVRNERQFAKQMELNSEARALKREIAKLEEVLKTLENN	not soluble
MGSDKIHHHHHHMASLDVFHQDAFTTIQLTTAVDKYPFQPTGLGDLNIFEPDPIRTTALAVEQRQGKLVVVPFSERGQEGTQRTTEQREARYFKVPRIMHADTLYANEIQDIRAFGTESELMQVQAEVARRLNGPTGLTSNIEYTWEYHRLAAVQGMLLDADGTVKYNWFDEFGITPPSLVPFNLSAQTPNSLRPIVNGIRRTMARKAQGAFLPTTKIFALCGDLFYDELTNHTDVIRTYLNWSAASELRDDSQGAAFEAFPFAGVTWSNYRGSDDNTTLKIPDDEVHFFPVGAPGVFRVAYAPGESFEWVNTPGKPIYVIPIYDRDRNSFWKMEAYSYPLHICTRPEVLQKGHAGA	not soluble
MKPAAREARLPPRSPGLRWALPLLLLLLRLGQILCAGGTPSPIPDPSVATVATGENGITQISSTAESFHKQNGTGTPQVETNTSEDGESSGANDSLRTPEQGSNGTDGASQKTPSSTGPSPVFDIKAVSISPTNVILTWKSNDTAASEYKYVVKHKMENEKTITVVHQPWCNITGLRPATSYVFSITPGIGNETWGDPRVIKVITEPIPVSDLRVALTGVRKAALSWSNGNGTASCRVLLESIGSHEELTQDSRLQVNISGLKPGVQYNINPYLLQSNKTKGDPLGTEGGLDASNTERSRAGSPTAPVHDESLVGPVDPSSGQQSRDTEVLLVGLEPGTRYNATVYSQAANGTEGQPQAIEFRTNAIQVFDVTAVNISATSLTLIWKVSDNESSSNYTYKIHVAGETDSSNLNVSEPRAVIPGLRSSTFYNITVCPVLGDIEGTPGFLQVHTPPVPVSDFRVTVVSTTEIGLAWSSHDAESFQMHITQEGAGNSRVEITTNQSIIIGGLFPGTKYCFEIVPKGPNGTEGASRTVCNRTGKQI	soluble
MGSMSMNAEQTVAELIARSNRLGSDPKNTNYAGGNTSAKGTDTDPVTGQPVELLWVKGSGGDLGTLTENGLAVLRLDRMRALVDVYPGVEREDEMVAAFDYCLHGRGGAAPSIDTAMHGLVDAAHVDHLHPDSGIALATAADGEALTKQIFGDRVVWVPWRRPGFQLGLDIADIKRRNPQAIGTILGGHGITAWGSTSAEAEAHSLEIIETAERYIAENGLEHHHHHH	soluble
SKAAIYHAFSHKEAKDHDVQELGSQRAEAFVRAFLKQSIPHMSQEDCESHLQRKAVILEYFTRLKPRPRPKKKSKGLSAKQRRDMRLFDIKPEQQRYSLFLPLHELWKQYIRDLCNGLKPDTQPQMIQAKLLKADLHGAIISVTKSKCPSYVGVTGILLQETKHVFKIITREDHLKVIPKLNCVFTIEIDDFISYIYGSKFQLRASERSAKKFKAKGSIDL	soluble
MGHHHHHHSHAEDATERACGLTMDPECAQLLPALCAVLVDPRQPVADDTCLEKLLDWFKTVTEGESSVVLLQEHPCLVELLSHVLKVQDLSSGVLSFSLRLAGTFAAQENCFQYLQQGELLPGLFGEPGPLGRATWAVPTVRSGWIQGLRSLAQHPSALRFLADHGAVDTIFSLQGDSSLFVASAASQLLVHVLALSMRGGAEGQPCLPGGDWPACAQKIMDHVEESLCSAATPKVTQALNVLTTTFGRCQSPWTEALWVRLSPRVACLLERDPIPAAHSFVDLLLCVARSGPRDAAGGPGWATVFLG	not soluble
MGSDKIHHHHHHAMSNKPVVLQGQIEATEIRISGKLPGRIDTFLVREGQYVKMGDTLVVINSPEAWAKFQQVNALEDIAKFQNKKIDDGTRRQIVRSVEELWNKSKSDLQLATVTYDRIQALYKDSVVTSQRKDEVEAMYKAAVAAERAAHQQFLLVKDGAQKEDKESARSLVDAARGTVNEVQALLMDARLTAPEDGQISTIYPKRGELVGAGTPIMSLVVLDDCHVVLNVREDYMPYFRMNENFMGDIPALDVKNKAFKINYISPLGSFATWRSTKQTGTYDMKTFEIHALPVEPMEGLRPGMSVLVNLDELK	not soluble
MVLIKEFRVVLPCSVQEYQVGQLYSVAEASKNETGGGEGIEVLKNEPYEKDGEKGQYTHKIYHLKSKVPAFVRMIAPEGSLVFHEKAWNAYPYCRTIVTNEYMKDDFFIKIETWHKPDLGTLENVHGLDPNTWKTVEIVHIDIADRSQVEPADYKADEDPALFQSVKTKRGPLGPNWKKELANSPDCPQMCAYKLVTIKFKWWGLQSKVENFIQKQEKRIFTNFHRQLFCWIDKWIDLTMEDIRRMEDETQKELETMRKRGSVRGTSAADV	soluble
MAHHHHHHMKYRYDEKIHKGLYSEDNSTSMNNRYNNNESTYKMPKEILNRHEKIDLNSLPIDEEIINNLKIILNIEKLYMYQYIIYNEILKNSKHLLIYNKTGTGKTLSYLLPLIQKLINDKFDCNKKVLIITQNIYLCKQLYIYILSIYPTLNVCILSDEKESYNMNNNINNDIIVNIKRNNINPNDKENNDMCDEKYGIHFYLCTPNKLEYFIKNYKNKSRNDKNVMNNILNNINTIVIDEFDYIVEYRKNILNFFFKKDLFNEIHNNNNIRDKNRFNHDIFNKSNYNIYLFTANINEVIKKKIYEHLNGFVFFDFINGIKEHIQKQVAEQHNFNIDVLKNSENVVQLLNKENKNESLCNLNITHFVCKINSASKYKYVCYFLEEFFFHKQKISQKVYNDMVYDEYDKLNYRNMIPMEENKFVNNSEKEGNMKRSNADKINKCIIFANTKEEVEKLYEISLLKPHAVMMHSELLTIQKNENINLFKVGKKNVLITTDIISRGLDIDNVIFILNYSPPTSPNDYIHRSGRTGRGKEKGICLTMYHKYEYRNVDKIMKYTKNKFEVILCPKVEDVYKFSVDKLVENVMKIAPEKYEFFNEKSKELLKKHNTKIIAQILSILLKFDKKSFDVSLLSGKKNYVAVLIKDPFFEVIKNRDDIINIIKVITGNKIITTIIGDVAKCDEGFIVDISSSHVNKIISLFNSSNFEYKSKGLEINTLIELPPIIKEKKNIIRRKKKAPWIT	not soluble
MGSDKIHHHHHHVKTRFFCQSCGQESPRWLGKCPGCGEWNTLVEEVVERAAAKRTPLGVKATPLTEIQIREEERVSSGSQELNRVLGGGIVPGSFVLLGGEPGIGKSTLLLQTAGLLAKGMDVLYISGEESEKQIKLRAERLGIKESRLHILTETRLEVVRDVALAMGPGLLIVDSIQTMVLEELQAAAGSVSQVREGAAFLMRLAKEEEIPIFLVGHVTKEGAIAGPRVLEHIVDTVLYFEGDRHHVYRLLRAVKNRFGSTNEIGVFEMHEDGLVEVPNPSKVFLGENSATAPGSSVAVIVEGSRPLLVEIQALVTPTTYGPPRRTATGIDYNRILMLLAVLDKKVGLHLGAQDVFINIAGGIRIDEPGVDLACIAAIASSLGERPLKRYALVGEVGLTGEVRGISQIEKRVKEAVKLGFEGCIIPRINVSAVKVPGNFTVIAVKTVEEAVQVMFEQ	not soluble
MSLKIVYITENAEKLAKDVKSVFDYYFYDNEVFNIKDFEITGNETGFVFIMASGIVLRKYIPEIQNDKLKDPFVILMDESKKHVVPLLSNHIGGGNYFSDLIGNFLNLDVVKTTATDVNGKIGIDELSKIYFLENPLKKDILSVNKKVLSEKPDLIIPKAWKTSKKLLNSYNVSFHDESHVLVDDIVLKPKTVSLGLGSRRNIEKSKVYWAVKKALYLRDIPTWRIDTFSTVSVKKDEYGILKTAERFDKDLFIFEIDELNEIYSKYPLIRSEFVFKTIGTYGVSEPCAILGISKITGETDFEMKKLVLNKMKKDGVSVSIAVEGHHHHHH	not soluble
